Measurements taken from PMC2756588.

T1: Bzz1-1, P38822
T1 sequence (P38822 478-572, looked up): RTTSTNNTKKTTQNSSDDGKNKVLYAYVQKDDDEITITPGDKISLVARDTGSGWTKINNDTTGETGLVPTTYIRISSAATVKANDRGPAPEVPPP

T2: Boi2, P39969
T2 sequence (P39969 32-116, looked up): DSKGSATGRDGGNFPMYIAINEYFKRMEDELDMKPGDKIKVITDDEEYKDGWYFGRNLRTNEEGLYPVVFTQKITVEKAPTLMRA

T3: Lsb4, P32793
T3 sequence (P32793 402-468, looked up): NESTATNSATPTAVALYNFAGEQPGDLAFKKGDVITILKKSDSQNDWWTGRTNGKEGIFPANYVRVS

T4: Sla1-3, P32790
T4 sequence (P32790 344-424, looked up): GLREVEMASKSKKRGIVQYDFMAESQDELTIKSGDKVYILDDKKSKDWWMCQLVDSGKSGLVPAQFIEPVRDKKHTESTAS

T5: Pin3, Q06449
T5 sequence (Q06449 53-122, looked up): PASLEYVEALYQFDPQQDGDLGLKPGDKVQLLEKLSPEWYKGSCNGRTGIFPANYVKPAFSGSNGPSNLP

T6: Bzz1-2, P38822
T6 sequence (P38822 568-633, looked up): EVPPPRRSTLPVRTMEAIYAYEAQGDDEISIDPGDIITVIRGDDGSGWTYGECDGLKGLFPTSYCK

T7: Nbp2, Q12163
T7 sequence (Q12163 103-180, looked up): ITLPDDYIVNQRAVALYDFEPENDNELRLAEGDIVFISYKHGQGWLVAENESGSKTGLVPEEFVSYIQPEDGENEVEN

T8: Pex13, P80667
T8 sequence (P80667 295-386, looked up): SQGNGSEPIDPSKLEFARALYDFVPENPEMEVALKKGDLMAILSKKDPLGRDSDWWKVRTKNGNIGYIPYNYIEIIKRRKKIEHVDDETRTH

T9: Lsb1, P53281
T9 sequence (P53281 45-122, looked up): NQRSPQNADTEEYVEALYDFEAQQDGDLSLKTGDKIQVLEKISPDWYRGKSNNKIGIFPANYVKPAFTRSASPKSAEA

T10: Myo5, Q04439
T10 sequence (Q04439 1072-1160, looked up): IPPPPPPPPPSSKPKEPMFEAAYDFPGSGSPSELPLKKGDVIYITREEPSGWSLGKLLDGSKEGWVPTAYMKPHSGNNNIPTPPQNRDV

T11: Cdc25, P04821
T11 sequence (P04821 50-136, looked up): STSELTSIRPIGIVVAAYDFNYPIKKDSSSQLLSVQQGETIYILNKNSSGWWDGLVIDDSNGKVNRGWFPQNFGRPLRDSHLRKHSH

T12: Hse1, P38753
T12 sequence (P38753 208-285, looked up): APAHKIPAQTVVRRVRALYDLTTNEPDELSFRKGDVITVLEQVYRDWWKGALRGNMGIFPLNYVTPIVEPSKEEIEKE

T13: Bud14, P27637
T13 sequence (P27637 247-328, looked up): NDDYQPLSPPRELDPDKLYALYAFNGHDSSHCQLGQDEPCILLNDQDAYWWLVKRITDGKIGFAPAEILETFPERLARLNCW

T14: Hof1, Q05080
T14 sequence (Q05080 590-669, looked up): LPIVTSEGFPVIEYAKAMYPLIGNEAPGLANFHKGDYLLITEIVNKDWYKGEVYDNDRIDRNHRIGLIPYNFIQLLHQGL

T15: Bbc1, P47068
T15 sequence (P47068 1-78, looked up): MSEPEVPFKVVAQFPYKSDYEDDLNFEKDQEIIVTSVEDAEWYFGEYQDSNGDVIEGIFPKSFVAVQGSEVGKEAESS

T16: Sla1-2, P32790
T16 sequence (P32790 60-140, looked up): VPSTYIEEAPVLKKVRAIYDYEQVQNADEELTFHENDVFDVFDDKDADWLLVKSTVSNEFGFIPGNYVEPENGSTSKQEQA

T17: Fus1, P11710
T17 sequence (P11710 432-512, looked up): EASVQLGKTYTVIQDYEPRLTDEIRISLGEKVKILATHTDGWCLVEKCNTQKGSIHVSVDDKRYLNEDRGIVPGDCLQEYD

T18: Abp1, P15891
T18 sequence (P15891 535-592, looked up): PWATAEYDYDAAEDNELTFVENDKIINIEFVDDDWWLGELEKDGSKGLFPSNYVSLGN

T19: Cyk3, Q07533
T19 sequence (Q07533 1-83, looked up): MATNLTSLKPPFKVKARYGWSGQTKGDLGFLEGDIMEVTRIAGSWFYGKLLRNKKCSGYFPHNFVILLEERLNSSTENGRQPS

T20: Boi1, P38041
T20 sequence (P38041 1-86, looked up): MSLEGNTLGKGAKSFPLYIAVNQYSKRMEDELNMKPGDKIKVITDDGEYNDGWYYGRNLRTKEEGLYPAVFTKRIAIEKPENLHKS

T21: Lsb3, P43603
T21 sequence (P43603 385-451, looked up): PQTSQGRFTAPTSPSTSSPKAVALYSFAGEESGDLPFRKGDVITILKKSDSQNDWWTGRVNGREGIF


Legend:
Test in all cases: SPOT array
[1] = target: Bem1-1, P29366; conditions: median of control spots 4282
Bem1-1, P29366, sequence (P29366 55-141): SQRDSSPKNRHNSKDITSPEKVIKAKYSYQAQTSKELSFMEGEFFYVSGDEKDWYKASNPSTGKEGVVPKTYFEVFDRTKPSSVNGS

[2] = target: T1, Bzz1-1, P38822; conditions: median of control spots 4446
[3] = target: T2, Boi2, P39969; conditions: median of control spots 1161
[4] = target: T3, Lsb4, P32793; conditions: median of control spots 397
[5] = target: T4, Sla1-3, P32790; conditions: median of control spots 5475
[6] = target: T5, Pin3, Q06449; conditions: median of control spots 2171
[7] = target: T6, Bzz1-2, P38822; conditions: median of control spots 4538
[8] = target: T7, Nbp2, Q12163; conditions: median of control spots 357
[9] = target: T8, Pex13, P80667; conditions: median of control spots 1341
[10] = target: T9, Lsb1, P53281; conditions: median of control spots 388
[11] = target: Bem1-2, P29366; conditions: median of control spots 4347
Bem1-2, P29366, sequence (P29366 139-227): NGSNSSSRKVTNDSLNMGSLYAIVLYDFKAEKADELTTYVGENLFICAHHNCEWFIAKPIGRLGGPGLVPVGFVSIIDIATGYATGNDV

[12] = target: T10, Myo5, Q04439; conditions: median of control spots 471
[13] = target: T11, Cdc25, P04821; conditions: median of control spots 969
[14] = target: T12, Hse1, P38753; conditions: median of control spots 1727
[15] = target: T13, Bud14, P27637; conditions: median of control spots 956
[16] = target: Myo3, P36006; conditions: median of control spots 468
[17] = target: T14, Hof1, Q05080; conditions: median of control spots 4086
[18] = target: T15, Bbc1, P47068; conditions: median of control spots 796
[19] = target: T16, Sla1-2, P32790; conditions: median of control spots 712
[20] = target: T17, Fus1, P11710; conditions: median of control spots 1200
[21] = target: T18, Abp1, P15891; conditions: median of control spots 935
[22] = target: Rvs167, P39743; conditions: median of control spots 2707
Rvs167, P39743, sequence (P39743 419-482): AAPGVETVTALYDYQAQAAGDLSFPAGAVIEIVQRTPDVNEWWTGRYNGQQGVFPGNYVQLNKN

[23] = target: T19, Cyk3, Q07533; conditions: median of control spots 1451
[24] = target: Sho1, P40073; conditions: median of control spots 1148
Sho1, P40073, sequence (P40073 287-367): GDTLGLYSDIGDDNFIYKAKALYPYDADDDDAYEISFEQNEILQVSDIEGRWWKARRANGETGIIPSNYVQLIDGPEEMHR

[25] = target: T20, Boi1, P38041; conditions: median of control spots 1162
[26] = target: GST; conditions: median of control spots 978
[27] = target: T21, Lsb3, P43603; conditions: median of control spots 406

| Binder | SPOT intensity [1] | SPOT intensity [2] | SPOT intensity [3] | SPOT intensity [4] | SPOT intensity [5] | SPOT intensity [6] | SPOT intensity [7] | SPOT intensity [8] | SPOT intensity [9] | SPOT intensity [10] | SPOT intensity [11] | SPOT intensity [12] | SPOT intensity [13] | SPOT intensity [14] | SPOT intensity [15] | SPOT intensity [16] | SPOT intensity [17] | SPOT intensity [18] | SPOT intensity [19] | SPOT intensity [20] | other results |
| --- | --- | --- | --- | --- | --- | --- | --- | --- | --- | --- | --- | --- | --- | --- | --- | --- | --- | --- | --- | --- | --- |
| MSPLGAPPPPPHKDH | 0 | 0 | 0 | 0 | 0 | 0 | 1 | 0 | 0 | 0 | 0 | 108 | 0 | 0 | 0 | 245 | 0 | 0 | 0 | 0 | SPOT intensity [21]: 0; SPOT intensity [22]: 0; SPOT intensity [23]: 0; SPOT intensity [24]: 0; SPOT intensity [25]: 0; SPOT intensity [26]: 1; SPOT intensity [27]: 0 |
| MFLISPPASPPPEFD | 0 | 0 | 0 | 0 | 0 | 65 | 0 | 0 | 12 | 0 | 0 | 219 | 2 | 0 | 0 | 326 | 1 | 0 | 0 | 0 | SPOT intensity [21]: 0; SPOT intensity [22]: 0; SPOT intensity [23]: 1; SPOT intensity [24]: 0; SPOT intensity [25]: 2; SPOT intensity [26]: 0; SPOT intensity [27]: 0 |
| VPPPMQPPPIESSNL | 0 | 0 | 0 | 48 | 0 | 114 | 0 | 6 | 27 | 99 | 0 | 167 | 0 | 0 | 0 | 318 | 0 | 0 | 2 | 1 | SPOT intensity [21]: 85; SPOT intensity [22]: 0; SPOT intensity [23]: 1; SPOT intensity [24]: 0; SPOT intensity [25]: 1; SPOT intensity [26]: 0; SPOT intensity [27]: 0 |

Second part, led by results:

| SPOT intensity [1] | SPOT intensity [2] | SPOT intensity [3] | SPOT intensity [4] | SPOT intensity [5] | SPOT intensity [6] | SPOT intensity [7] | SPOT intensity [8] | SPOT intensity [9] | SPOT intensity [10] | SPOT intensity [11] | SPOT intensity [12] | SPOT intensity [13] | SPOT intensity [14] | SPOT intensity [15] | SPOT intensity [16] | SPOT intensity [17] | SPOT intensity [18] | SPOT intensity [19] | SPOT intensity [20] | Binder | other results |
| --- | --- | --- | --- | --- | --- | --- | --- | --- | --- | --- | --- | --- | --- | --- | --- | --- | --- | --- | --- | --- | --- |
| 0 | 0 | 0 | 0 | 0 | 0 | 1 | 0 | 1 | 0 | 0 | 443 | 2 | 0 | 2 | 483 | 0 | 0 | 0 | 0 | PPIPNAPLSPAPAVP | SPOT intensity [21]: 0; SPOT intensity [22]: 0; SPOT intensity [23]: 0; SPOT intensity [24]: 0; SPOT intensity [25]: 0; SPOT intensity [26]: 0; SPOT intensity [27]: 0 |
| 1 | 124 | 0 | 4 | 1 | 109 | 253 | 0 | 43 | 0 | 0 | 223 | 3 | 0 | 2 | 436 | 0 | 0 | 0 | 1 | NPTKSPPPPPSPSTM | SPOT intensity [21]: 28; SPOT intensity [22]: 0; SPOT intensity [23]: 1; SPOT intensity [24]: 2; SPOT intensity [25]: 0; SPOT intensity [26]: 1; SPOT intensity [27]: 0 |
| 0 | 0 | 0 | 0 | 3 | 0 | 0 | 0 | 4 | 0 | 89 | 559 | 2 | 12 | 0 | 537 | 51 | 0 | 0 | 0 | APPLPPTAPPPPSLP | SPOT intensity [21]: 0; SPOT intensity [22]: 0; SPOT intensity [23]: 0; SPOT intensity [24]: 0; SPOT intensity [25]: 0; SPOT intensity [26]: 1; SPOT intensity [27]: 0 |
